Measurements published in publication PMC6520365, “Structural and functional characterization of the PDZ domain of the human phosphatase PTPN3 and its interaction with the human papillomavirus E6 oncoprotein” (Scientific Reports, 2019).
Marks after values point to notes of the source that are not given here.

Legend:
Type in all cases: physicochemical, human
[1] = DSC of free PDZ domain (thermal stability); settings: 21 μM free PTPN3-PDZ, 18 μM PTPN4-PDZ, scan rate 200 °C/h, buffer A pH 7.5, repeated three times
Protocol: DSC experiments were carried out on a Microcal VP-capillary DSC (Malvern). 18, 21, 94 and 28 μM of PTPN4-PDZ, free PTPN3-PDZ, free PTPN3-PDZNext and PTPN3-PDZ complexed with peptides respectively were scanned from 10 °C to 90–100 °C with a scan rate of 200 °C/h. Large excess of peptides were used: about 600 μM for p38γ PBM, about 300 μM for HBVc PBM and HPV16E6 PBM and about 200 μM for HPV18E6 PBM. The buffer A was repeatedly scanned to ensure a stable buffer baseline. The buffer baseline was subtracted from the protein thermogram. Subsequent to normalization of the data by the protein concentration, a non-linear curve fitting algorithm was employed to obtain the Tm of the transition. All experiments were repeated three times.

[2] = Aggregation/stability followed by NMR HSQC spectra at 20 °C
Protocol: To evaluate the stability of PTPN3-PDZ, we performed differential scanning calorimetry (DSC) (Fig. 2C). […] As a comparison, we performed DSC on PTPN4-PDZ. We obtained an endothermic peak with a Tm of 47 °C (Fig. 2C). […] This thermal instability of the PTPN3-PDZ construct could be responsible for its aggregation previously detected by NMR.
The instability and tendency to oligomerize of PTPN3-PDZ made this construct unsuitable for crystallogenesis. To gain in stability and protein expression yield, we extended the N-terminal extremity of PTPN3-PDZ by 15-residues with its wild-type upstream sequence (PTPN3-PDZNext in Fig. 1). These extensions have been reported to provide structural stability to some PDZ containing proteins[13],[14]. The PTPN3-PDZ production yield was increased two-fold after extension from 0.9 mg to 1.8 mg of purified protein per liter of culture. The stability of PTPN3-PDZNext was then evaluated by NMR HSQC spectra recorded during a week at 20 °C. […] The additional peaks of the N-terminal extension residues fall in the spectral region characteristic of unfolded protein and no chemical shift differences between PTPN3-PDZNext and the shorter form are detected.
A series of ^1H, ^15N HSQC spectra was recorded over a week at 20 °C for a sample of PTPN3-PDZNext at 170 μM to follow the stability of the construct.

[3] = AUC sedimentation velocity of free PTPN3 PDZ constructs; settings: 20 °C
Protocol: To estimate the oligomeric state of the PTPN3-PDZ construct, analytical ultracentrifugation (AUC) experiments were performed (Table 2). Three different concentrations of the protein were tested, 10, 25 and 70 μM. Only one single peak was detected at 10 μM with a sedimentation coefficient of 1.5S in agreement with a monomeric form of 10.5 kDa. At 25 μM, an additional peak was detected with a sedimentation coefficient of 2.6S corresponding to a dimeric form.
Sedimentation velocity experiments were carried out at 20 °C using a Beckman Coulter XL-I centrifuge equipped with a AN60-Ti rotor. Various protein and protein–peptide complex concentrations (protein concentrations ranging from 12.5 to 70 μM) samples were centrifuged for 17 h at 42000 rpm. Data were analyzed with SEDFIT 15.1 using a continuous size distribution c(S) model. The partial specific volume, the viscosity and the density of the samples were calculated with […]. The processed data were used to obtain values of sedimentation coefficients at null concentration in our experimental conditions (S0) and to get the standard sedimentation coefficients in water at 20 °C (S0,w,20) (Table 2).

[4] = as above; settings: 20 °C; remark: listed apart in the source
[5] = PTPN3-PDZ 25 μM, two peaks are present

Molecule	Tm (thermal transition midpoint), free PDZ domain [1] [°C]	aggregation by HSQC peak intensity ([2]; after 10 h at 20 °C, data not shown)	MW estimated ([3]; PTPN3-PDZ 10 μM, 42000 rpm) [kDa]	Sed coef (S0,w,20) ([3]; PTPN3-PDZ 10 μM, standard coefficient in water at 20 °C) [S]	MW estimated [3, 5]	Sed coef (S0,w,20) [3, 5]	oligomeric state of free PTPN3-PDZ ([3]; PTPN3-PDZ 70 μM)	MW estimated ([4]; PTPN3-PDZNext 17.5 μM) [kDa]	Sed coef (S0,w,20) ([4]; PTPN3-PDZNext 17.5 μM) [S]	MW estimated ([4]; PTPN3-PDZNext 35 μM) [kDa]	Sed coef (S0,w,20) ([4]; PTPN3-PDZNext 35 μM) [S]	MW estimated ([4]; PTPN3-PDZNext 70 μM) [kDa]	Sed coef (S0,w,20) ([4]; PTPN3-PDZNext 70 μM) [S]	oligomeric state of free PTPN3-PDZNext ([4]; PTPN3-PDZNext between 17.5 μM and 70 μM)	aggregation by HSQC peak intensity ([2]; HSQC recorded during a week at 20 °C, PTPN3-PDZNext 170 μM)
PTPN3-PDZ: recombinant PDZ domain of human PTPN3 expressed in E. coli (protein, left off: GST, N-terminal, cleaved, recombinant PDZ domain of human PTPN3 expressed in E. coli) GDSYLVLIRITPDEDGKFGFNLKGGVDQKMPLVVSRINPESPADTCIPKLNEGDQIVLINGRDISEHTHDQVVMFIKASRESHSRELALVIRRRAVRSFADFKSEDELNQLFPEAIFPMCPEGGDTLEGSMAQLKKGLESGTVLIQFEQLYRKKPGLAITFAKLPQNLDKNRYKDVLPYDTTRVLLQGNEDYINASYVNMEIPAANLVNKYIATQGPLPHTCAQFWQVVWDQKLSLIVMLTTLTERGRTKCHQYWPDPPDVMNHGGFHIQCQSEDCTIAYVSREMLVTNTQTGEEHTVTHLQYVAWPDHGVPDDSSDFLEFVNYVRSLRVDSEPVLVHCSAGIGRTGVLVTMETAMCLTERNLPIYPLDIVRKMRDQRAMMVQTSSQYKFVCEAILRVYEEGLVQMLDPS	41	significant loss of peak intensities	12.4	1.5	11.3–25.9^a kDa	1.5–2.6^a S	higher oligomeric species could be detected								
PTPN3-PDZNext: PTPN3-PDZ extended at the N-terminal extremity by 15 residues with its wild-type upstream sequence (protein, left off: GST, N-terminal, cleaved) STEDASQYYCDKNDNGDSYLVLIRITPDEDGKFGFNLKGGVDQKMPLVVSRINPESPADTCIPKLNEGDQIVLINGRDISEHTHDQVVMFIKASRESHSRELALVIRRRAVRSFADFKSEDELNQLFPEAIFPMCPEGGDTLEGSMAQLKKGLESGTVLIQFEQLYRKKPGLAITFAKLPQNLDKNRYKDVLPYDTTRVLLQGNEDYINASYVNMEIPAANLVNKYIATQGPLPHTCAQFWQVVWDQKLSLIVMLTTLTERGRTKCHQYWPDPPDVMNHGGFHIQCQSEDCTIAYVSREMLVTNTQTGEEHTVTHLQYVAWPDHGVPDDSSDFLEFVNYVRSLRVDSEPVLVHCSAGIGRTGVLVTMETAMCLTERNLPIYPLDIVRKMRDQRAMMVQTSSQYKFVCEAILRVYEEGLVQMLDPS								12.7	1.6	12.5	1.7	15	1.6	devoid of higher oligomeric species	without any signs of aggregation
